Measurements from patent US20220296726A1 (Bicycle, published 2022).
*1 amine or outer side, *2 acyl side, *3 side chain or, on linkers, in order; H or OH if unused. Bridges are numbered along the chain shown (N, C = ends). Where no end group is shown, it is not given here. [ ]: non-standard residue; d: D form. TATA = O=C(CC[*:1])N1CN(C(=O)CC[*:2])CN(C(=O)CC[*:3])C1; Phe(2-Me) = Cc1ccccc1C[C@H](N)C(=O)O

T1: Human TREM2 extracellular domain (ECD), residues 19-131, C-terminally biotinylated, glycosylated (human, UniProt Q9NZC2 19-131, C-terminally biotinylated; glycosylated)
T1 construct: range 19-131; loaded on Superstreptavidin biosensors; also called Human BLI glycosylated
T1 sequence (looked up): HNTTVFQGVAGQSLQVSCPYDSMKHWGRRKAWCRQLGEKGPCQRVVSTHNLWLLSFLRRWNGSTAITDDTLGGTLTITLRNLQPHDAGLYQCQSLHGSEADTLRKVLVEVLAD

T2: Human TREM2 extracellular domain (ECD), residues 19-131, C-terminally biotinylated, deglycosylated (human, UniProt Q9NZC2 19-131, C-terminally biotinylated; deglycosylated)
T2 construct: range 19-131; loaded on Superstreptavidin biosensors; also called triggering receptor expressed on myeloid cells 2; Human BLI (deglycosylated)
T2 sequence (looked up): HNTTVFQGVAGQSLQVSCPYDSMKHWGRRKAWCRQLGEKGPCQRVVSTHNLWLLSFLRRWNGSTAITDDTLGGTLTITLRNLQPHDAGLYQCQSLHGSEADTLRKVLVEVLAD

T3: TREM2 on human iPSC macrophages (human, UniProt Q9NZC2 19-230)
T3 sequence (looked up): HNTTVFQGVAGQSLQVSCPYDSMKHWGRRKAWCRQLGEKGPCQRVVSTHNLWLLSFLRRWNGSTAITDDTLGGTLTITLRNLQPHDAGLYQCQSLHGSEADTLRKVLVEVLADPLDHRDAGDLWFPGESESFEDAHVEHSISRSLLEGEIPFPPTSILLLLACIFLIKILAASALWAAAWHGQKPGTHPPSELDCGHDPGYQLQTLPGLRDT

T4: Cyno TREM2 (Cyno, UniProt A0A2K5UY34 49-161)
T4 construct: range 19-131; also called Cyno BLI
T4 sequence: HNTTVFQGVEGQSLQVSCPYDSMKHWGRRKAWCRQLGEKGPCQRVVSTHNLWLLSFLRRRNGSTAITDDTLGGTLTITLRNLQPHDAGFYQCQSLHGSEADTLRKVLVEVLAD


What was measured:
[1] = biological target: T1, Human TREM2 extracellular domain (ECD), …; assay: BLI steady state, glycosylated human TREM2 ECD on sensor
Experimental: (§1) Bio-layer interferometry was performed on an Octet RED384® system (Sartorius) at 25° C. in a buffer containing 50 mM HEPES (pH 7.5), 150 mM NaCl and 0.1% Tween. […] Reference wells containing no bicycle peptides and reference sensors loaded with an unrelated protein (His-tagged MLLT3a) were subjected to the same assay protocol and double reference subtraction was used for processing to account for non-specific binding. Traces were analysed using Octet Software (Version 11.0). Association and dissociation curves were globally fit and the response at equilibrium (Req) plotted against concentration to obtain steady-state KD values.

[2] = biological target: T2, Human TREM2 extracellular domain (ECD), …; assay: BLI steady state, deglycosylated human TREM2 ECD on sensor
Experimental: as §1

[3] = biological target: T3, TREM2 on human iPSC macrophages; assay: cell-based or functional assay
[4] = biological target: T2, Human TREM2 extracellular domain (ECD), …; assay: Bio-layer interferometry (Octet), direct binding: biotinylated human TREM2 ECD loaded on Superstreptavidin biosensors, peptide in solution at 0.195 to 12.5 µM (7 traces)
Experimental: as §1

Cyno TREM2 = biological target: T4, Cyno TREM2; assay: BLI steady state, cyno TREM2 on sensor
Experimental: as §1

Binder	Kd [1] [nM]	Kd [2] [nM]	pSYK (µM) [3] [µM]	Kd [4] [nM]	Kd (Cyno TREM2) [nM]
CSEYCFWXFYHC (N-terminal acetyl (Ac); CiSEYCiiFW[44DFP]FYHCiii; Ci, Cii, Ciii on TATA scaffold) [BCY20066]	980	1860	–	–	–
CSEYCXWPFYHC (N-terminal acetyl (Ac); CiSEYCii[1Nal]WPFYHCiii; Ci, Cii, Ciii on TATA scaffold) [BCY20054]	1830	2540	–	–	–
ACSEYCFWPFYHCA (linker 2-6-13 via TATA) [BCY16054]	–	700	10.7	680	3300
CSEYCFXPFYHC (N-terminal acetyl (Ac); CiSEYCiiF[6MeTrp]PFYHCiii; Ci, Cii, Ciii on TATA scaffold) [BCY20060]	1110	1390	–	–	–
Ac-CSEYCF[Phe(2-Me)]PFYHC (linker 1-5-12 via TATA) [BCY20063]	1580	1300	–	–	–
CSEYCFWPXYHC (N-terminal acetyl (Ac); CiSEYCiiFWP[44BPA]YHCiii; Ci, Cii, Ciii on TATA scaffold) [BCY20075]	1510	2400	–	–	–
CSEYCXWPFYHC (N-terminal acetyl (Ac); CiSEYCii[4FPhe]WPFYHCiii; Ci, Cii, Ciii on TATA scaffold) [BCY20053]	1710	2010	–	–	–
CSEYCFXPFYHC (N-terminal acetyl (Ac); CiSEYCiiF[Trp(Me)]PFYHCiii; Ci, Cii, Ciii on TATA scaffold) [BCY20059]	1500	1810	–	–	–
CSEYCFWPXYHC (N-terminal acetyl (Ac); CiSEYCiiFWP[4FPhe]YHCiii; Ci, Cii, Ciii on TATA scaffold) [BCY20073]	2130	2320	–	–	–
CSEYCFWPXYHC (N-terminal acetyl (Ac); CiSEYCiiFWP[2MePhe]YHCiii; Ci, Cii, Ciii on TATA scaffold) [BCY20071]	780	910	–	–	–
CSEYCXWPFYHC (N-terminal acetyl (Ac); CiSEYCii[3FPhe]WPFYHCiii; Ci, Cii, Ciii on TATA scaffold) [BCY20052]	1250	4880	–	–	–
